Target: the molecule itself
Assay: AFM imaging on mica (self-association, not fibrils)
Description: Pieces of 8.0 mm×8.0 mm×0.5 mm muscovite mica were cut and mounted on standard microscope slides using composite epoxy glue (5 Minute Epoxy, ITW Performance Polymers and Fluids, FL. USA). Before protein deposition, the top layer(s) of mica was peeled mechanically to expose fresh (0001) surfaces. For SBAFP-m1 or wild type WT SBAFP, 20 μl of sample in Tris buffer (100 mM, pH8.0) were deposited on the freshly exposed mica(0001) surfaces. After 5 min incubation, the surfaces were washed three times with 200 μl Tris buffer (100 mM, pH 8.0) to remove weakly bound proteins and fibrils. The samples were immediately imaged in the Tris buffer. Sample preparation for RGAFP-m1 or WT RGAFP followed similar protocols except for the surface coating and imaging medium. The freshly cleaved mica(0001) surfaces were coated with poly-L-Lysine, by dropping 80 μl 0.1% (w/v) poly-L-Lysine (Sigma P8920, MW 150-300 kDa) onto the surface, incubating for 5 min, then washing with MilliQ water. The surfaces were dried with clean air before protein deposition. The samples were imaged under ambient conditions.
The formation of fibers by SBAFP-m1 was analyzed after 48 h and 3 weeks of incubation at 37° C. […] The expansion (FIG. 10A inset) allows an accurate height determination of 1.5-3 nm, but predominantly between 2.5 and 3 nm. […]

B1: WT SBAFP (other)
chain: DGTCVNTNSQITANSQCVKSTATNCYIDNSQLVDTSICTRSQYSDANVKKSVTTDCNIDKSQVYLTTCTGSQYNGIYIRSSTTTGTSISGPGCSISTCTITRGVATPAAACKISGCSLSAM
notes: Gene in pET20b from the Davies lab, expressed in E. coli; also called wild type spruce budworm antifreeze protein; isozyme 501
binding result: binds
